Experimental data from the Human Domainome abundance scans (Beltran et al. 2025).
± gives the uncertainty stated by the source.

B1: Dynamin-binding protein, residues 242 to 304; numbered along this chain, Q6XZF7 (parent)
chain: EEPGTYGVALYRFQALEPNELDFEVGDKIRILATLEDGWLEGSLKGRTGIFPYRFVKLCPDTR

Variants of: B1
Test: abundance fitness (aPCA) (normalised: wild type 0, dead -1); higher = more abundant; growth selection in yeast, the domain comes from the species named
Conditions: Homo sapiens

Row | Variant | abundance fitness
1 | EEPGTYGVALYRFQALEPNELDFEVKDKIRILATLEDGWLEGSLKGRTGIFPYRFVKLCPDTR [G26K] | -0.643 ± 0.39
2 | EEPGTYGVALYRFQALEPNELDFEVFDKIRILATLEDGWLEGSLKGRTGIFPYRFVKLCPDTR [G26F] | -0.682 ± 0.09
3 | EECGTYGVALYRFQALEPNELDFEVGDKIRILATLEDGWLEGSLKGRTGIFPYRFVKLCPDTR [P3C] | -0.221 ± 0.077
4 | EEKGTYGVALYRFQALEPNELDFEVGDKIRILATLEDGWLEGSLKGRTGIFPYRFVKLCPDTR [P3K] | 0.18 ± 0.16
5 | EEPGTYGVANYRFQALEPNELDFEVGDKIRILATLEDGWLEGSLKGRTGIFPYRFVKLCPDTR [L10N] | -0.827 ± 0.11
6 | EEPGTYGVAMYRFQALEPNELDFEVGDKIRILATLEDGWLEGSLKGRTGIFPYRFVKLCPDTR [L10M] | 0.048 ± 0.094
7 | EEPGTYGVALYRFQALEPNELDFEVGDKIRILATLEDGWLEGSLKGRTGIFPYRFVKMCPDTR [L58M] | -0.032 ± 0.1
8 | EEPGTYGVALYRFQALEPNELDFEVGDKIRILATLEDGWLEGSLKGRTGIFPYRFVKFCPDTR [L58F] | -0.186 ± 0.048
9 | EEPGTYGVALYRFQALEPTELDFEVGDKIRILATLEDGWLEGSLKGRTGIFPYRFVKLCPDTR [N19T] | -0.223 ± 0.076
10 | EEPGTYGVALYRFQALEPNELDFEVGDKIRILATLEDGLLEGSLKGRTGIFPYRFVKLCPDTR [W39L] | -0.184 ± 0.067
11 | EEPGTYGVALYRFQALEPNELDFEVGDKIRILATLEDGDLEGSLKGRTGIFPYRFVKLCPDTR [W39D] | -0.661 ± 0.11
12 | EEPGTYGVALYRFQALEPNELDFWVGDKIRILATLEDGWLEGSLKGRTGIFPYRFVKLCPDTR [E24W] | -0.438 ± 0.15
13 | EEPGTYGVALYRFQALEPNELDFEVGDKIRILATLEDGWLECSLKGRTGIFPYRFVKLCPDTR [G42C] | -0.859 ± 0.12
14 | EEPGTYGVALYRFQALEPNELDFEVGDKIRILATLEDGWLEKSLKGRTGIFPYRFVKLCPDTR [G42K] | -0.892 ± 0.19
15 | EEPGTYGRALYRFQALEPNELDFEVGDKIRILATLEDGWLEGSLKGRTGIFPYRFVKLCPDTR [V8R] | -0.302 ± 0.086
16 | EEPGTYGHALYRFQALEPNELDFEVGDKIRILATLEDGWLEGSLKGRTGIFPYRFVKLCPDTR [V8H] | -0.321 ± 0.11
17 | EEPGTYGGALYRFQALEPNELDFEVGDKIRILATLEDGWLEGSLKGRTGIFPYRFVKLCPDTR [V8G] | -0.779 ± 0.092
18 | EEPGTYGQALYRFQALEPNELDFEVGDKIRILATLEDGWLEGSLKGRTGIFPYRFVKLCPDTR [V8Q] | -0.449 ± 0.35
19 | EEPGTYGVHLYRFQALEPNELDFEVGDKIRILATLEDGWLEGSLKGRTGIFPYRFVKLCPDTR [A9H] | -0.967 ± 0.16
20 | EEPGTYGVALYRFQALEPNELDFEVGDKIRILATLEDHWLEGSLKGRTGIFPYRFVKLCPDTR [G38H] | -0.454 ± 0.13
21 | EEPGTYGVALYRFQALEPNELDFEVGDKIRILATLEDIWLEGSLKGRTGIFPYRFVKLCPDTR [G38I] | -0.769 ± 0.1
22 | EEPGTYGVALYRFQALEPNELDFEVGDKIRILATLEDGWLEGSLKGVTGIFPYRFVKLCPDTR [R47V] | -0.477 ± 0.065

Row | Variant | abundance fitness
23 | EEPGTYGVALYRFQALEPNELDFEVGDKIRILATLEDGWLEGSLKGCTGIFPYRFVKLCPDTR [R47C] | -0.578 ± 0.086
24 | EEPGTYGVALYRFQALEPNILDFEVGDKIRILATLEDGWLEGSLKGRTGIFPYRFVKLCPDTR [E20I] | -0.65 ± 0.095
25 | EEPGTYGVALYRFQALEPNELDFEVGDKIRILATLEDGWLEGSLKGRTGIFPYRFVLLCPDTR [K57L] | -0.562 ± 0.074
26 | EEPGTYGVALYRFQALEPNELDFEVGDKIRILATLEDGWLEGSLKGRTGIFPYRTVKLCPDTR [F55T] | -0.472 ± 0.047
27 | EEPGTYGVALYRFQALEPNELDFEVGDKIRILATLEDGWLEGSLKGRTGWFPYRFVKLCPDTR [I50W] | -0.693 ± 0.19
28 | EEPGTYGVALYRFQALEPNELDFEVGDKIRILATLEDGWLEGSLKGRTGLFPYRFVKLCPDTR [I50L] | -0.383 ± 0.061
29 | CEPGTYGVALYRFQALEPNELDFEVGDKIRILATLEDGWLEGSLKGRTGIFPYRFVKLCPDTR [E1C] | -0.189 ± 0.11
30 | EEPGTYGVALYRFQALEPNELDFEVGDKIRILATLEDGWLEGSLKQRTGIFPYRFVKLCPDTR [G46Q] | -0.753 ± 0.16
31 | EEPGTYGVALYRFQALEPNELDFEVGDKIRILATLEDGWLEGSLKMRTGIFPYRFVKLCPDTR [G46M] | -0.769 ± 0.17
32 | EEPGTYGVALYRFQALEPNELDFEVGDKIRILATLEDGWLEGSLKGRTGIFPYRFVKLCPPTR [D61P] | -0.027 ± 0.061
33 | EEPGTYGVALYRFQALEPNELDFEVGDKIRILATLEDGWLEGSLKGRTGIFPYRFVKLCPMTR [D61M] | -0.144 ± 0.11
34 | EEPGTYGVALYRFQALEPNELDFEVGDKIRILATLEDGWLEGSLKGRTGIKPYRFVKLCPDTR [F51K] | -0.623 ± 0.27
35 | EEPGTYGVALYRFQALEPNECDFEVGDKIRILATLEDGWLEGSLKGRTGIFPYRFVKLCPDTR [L21C] | -0.851 ± 0.1
36 | EEPGTYGVALYRFQALEQNELDFEVGDKIRILATLEDGWLEGSLKGRTGIFPYRFVKLCPDTR [P18Q] | -0.042 ± 0.2
37 | EEPGTYGVALYRFQALEPNELDFERGDKIRILATLEDGWLEGSLKGRTGIFPYRFVKLCPDTR [V25R] | -0.223 ± 0.059
38 | EEPGTYGVALYRFQALEPNELDFEVGDKIRILATQEDGWLEGSLKGRTGIFPYRFVKLCPDTR [L35Q] | 0.009 ± 0.23
39 | EEPGTYGVALYRFQALEPNELDFEVGDKIRILATLEDGWLEGSLKGRTGIFPYRFSKLCPDTR [V56S] | -0.719 ± 0.08
40 | EEPGEYGVALYRFQALEPNELDFEVGDKIRILATLEDGWLEGSLKGRTGIFPYRFVKLCPDTR [T5E] | -0.61 ± 0.17
41 | EEPGTYGVALYRFQALEPNELDFEVGDKIRILATLEDGWLEGSLKGRTGIFPYRFVKLCMDTR [P60M] | -0.317 ± 0.14
42 | EEPGTYGVALYRFQALEPNELDFEVGQKIRILATLEDGWLEGSLKGRTGIFPYRFVKLCPDTR [D27Q] | -0.723 ± 0.23
43 | EEPGTYGVALYRFQALEPNELDFEVGHKIRILATLEDGWLEGSLKGRTGIFPYRFVKLCPDTR [D27H] | -0.927 ± 0.15
